Target: hIL-12 receptor signaling complex (hIL-12Rβ1 and hIL-12Rβ2) (human) (UniProt P42701)
Assay: cell-based or functional assay

hIL-12 receptor signaling complex (hIL-12Rβ1 and hIL-12Rβ2) (human), sequence (Q99665 24-862, chain 2 of 2, other chains not shown): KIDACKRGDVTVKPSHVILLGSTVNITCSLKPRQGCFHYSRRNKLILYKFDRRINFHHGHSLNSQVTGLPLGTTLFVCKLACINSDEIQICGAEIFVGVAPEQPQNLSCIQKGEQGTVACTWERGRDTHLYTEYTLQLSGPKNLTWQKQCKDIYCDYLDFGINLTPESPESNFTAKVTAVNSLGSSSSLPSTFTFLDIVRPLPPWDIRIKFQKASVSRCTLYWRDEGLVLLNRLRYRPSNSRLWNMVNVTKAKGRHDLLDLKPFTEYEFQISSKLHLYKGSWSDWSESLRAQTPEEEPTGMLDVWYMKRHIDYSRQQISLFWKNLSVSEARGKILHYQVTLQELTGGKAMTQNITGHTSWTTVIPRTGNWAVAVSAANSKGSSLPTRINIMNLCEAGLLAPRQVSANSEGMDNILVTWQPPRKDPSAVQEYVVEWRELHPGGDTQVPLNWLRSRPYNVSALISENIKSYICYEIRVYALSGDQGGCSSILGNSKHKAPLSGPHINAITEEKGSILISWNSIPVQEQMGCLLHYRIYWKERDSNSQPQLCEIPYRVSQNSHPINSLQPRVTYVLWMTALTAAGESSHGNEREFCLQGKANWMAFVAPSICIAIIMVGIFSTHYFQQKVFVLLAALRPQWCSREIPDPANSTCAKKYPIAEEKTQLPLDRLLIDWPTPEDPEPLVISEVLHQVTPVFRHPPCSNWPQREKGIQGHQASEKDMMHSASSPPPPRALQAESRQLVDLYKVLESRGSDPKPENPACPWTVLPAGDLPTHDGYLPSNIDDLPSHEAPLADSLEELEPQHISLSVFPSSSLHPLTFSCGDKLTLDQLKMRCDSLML

## human IL12 mutein of the F82X panel printed as E81A/F82F/K106K in row r9 of Tables 10 and 11 (label printed a second time in r19 with other values) (ligand)
  pSTAT4 [%+] EC50, CD8+ T Cells: 1.86 nM
  pSTAT4 [%+] EC50, CD56hi NK Cells: 2.27 nM
  pSTAT4 [%+] Emax, CD8+ T Cells: 75.9 %+
  pSTAT4 [%+] Emax, CD56hi NK Cells: 78.2 %+
  pSTAT4 [gMFI] EC50, CD8+ T Cells: 6.65 nM
  pSTAT4 [gMFI] EC50, CD56hi NK Cells: 9.12 nM
  pSTAT4 [gMFI] Emax, CD8+ T Cells: 80100 gMFI
  pSTAT4 [gMFI] Emax, CD56hi NK Cells: 21600 gMFI

## human IL12 mutein, hIL-12p40 E81A, F82S with hIL-12p35-8X His (from UniProt P29460 23-328; P29459 23-219) (ligand)
  pSTAT4 [%+] EC50, CD8+ T Cells: 0.86 nM
  pSTAT4 [%+] EC50, CD56hi NK Cells: 1.4 nM
  pSTAT4 [%+] Emax, CD8+ T Cells: 80.5 %+
  pSTAT4 [%+] Emax, CD56hi NK Cells: 86.1 %+
  pSTAT4 [gMFI] EC50, CD8+ T Cells: 3.84 nM
  pSTAT4 [gMFI] EC50, CD56hi NK Cells: 6.29 nM
  pSTAT4 [gMFI] Emax, CD8+ T Cells: 95900 gMFI
  pSTAT4 [gMFI] Emax, CD56hi NK Cells: 26200 gMFI

From patent US20250388640A1
